“Also recorded” adds a separate entry of the source.
Tests used:
[1] = system: Nictide with Thr introduced at the -2 position
[2] = system: Nictide with the phosphorylated Thr mutated to Ser
[3] = system: LRRKtide with -2Tyr mutated to Glu
[4] = system: Nictide with Thr introduced at the +2 position
[5] = system: Nictide peptides with combined -5, -4 and -1 mutations
[6] = system: Nictide with -1 Tyr mutated to Ala
[7] = system: Nictide with -4Trp mutated to Ala
[8] = system: LRRKtide with +1Leu mutated to Ala
[9] = system: Nictide with +2 Arg mutated to Ala
[10] = system: LRRKtide with the +5 residue mutated to Glu
[11] = system: Nictide with Thr residues at both the -2 and +2 positions
[12] = system: T1, LRRKtide peptide (RLGRDKYKTLRQIRQ)
T1 sequence: RLGRDKYKTLRQIRQ

[13] = system: T2, Nictide (RLGWWRFYTLRRARQGNTKQR)
T2 sequence: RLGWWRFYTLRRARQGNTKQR

[14] = system: LRRKtide with +5Arg mutated to Ala
[15] = system: LRRKtide with the +2 residue mutated to Glu
[16] = system: LRRKtide with +2Arg mutated to Ala
[17] = system: LRRKtide with the +2 residue mutated to Pro
[18] = system: LRRKtide with -2Tyr mutated to Ala
[19] = system: Nictide with +1Leu mutated to Pro
[20] = system: Nictide with -5Trp mutated to Ala
[21] = system: GST-Nictide
[22] = system: LRRKtide with -2Tyr mutated to Arg
[23] = system: LRRKtide with -5Arg mutated to Ala
[24] = system: LRRKtide with the +5 residue mutated to Pro
[25] = system: LRRKtide with -4 (Asp) mutated to Ala

GST-LRRK2 1326-2527 [G2019S]
Km and Vmax against Nictide [1]: moderately increased the Km and reduced the Vmax value
peptide phosphorylation [2]: almost abolished phosphorylation of the peptide by LRRK2
fold decrease of Vmax against wild type LRRKtide [3]: -2 Tyr (2 to 10-fold)
fold increase of Km against wild type LRRKtide [3]: increased Km 4.4-fold
Km and Vmax against Nictide [4]: moderately increased the Km and reduced the Vmax value
fold increase of Km against Nictide [5]: the Km values were substantially increased 5 to 20-fold compared to Nictide
fold increase of Km against Nictide [6]: increased Km values 2 to 3-fold
fold increase of Vmax against Nictide [6]: enhanced Vmax of LRRK2 phosphorylation ~2-fold
fold decrease of Vmax against Nictide [7]: decreased the Vmax value of phosphorylation 2 to 5-fold
fold increase of Km against Nictide [7]: increased Km values 2 to 3-fold
fold increase of Vmax against Nictide [7]: enhanced Vmax of LRRK2 phosphorylation ~2-fold
fold decrease of Vmax against wild type LRRKtide [8]: +1Leu (2-fold)
peptide phosphorylation [8]: had no effect on LRRK2 phosphorylation
fold decrease of Vmax against Nictide [9]: decreased the Vmax value of phosphorylation 2 to 5-fold
Km against wild type LRRKtide [10]: increased Km similarly to the Ala mutation
fold decrease of Vmax against wild type LRRKtide [10]: +5 Arg (mutation to Glu 4-fold)
fold increase of Km against Nictide [11]: increased Km value of over 10-fold
Km of peptide phosphorylation [12]: Km of 200 µM
Vmax of peptide phosphorylation [12]: Vmax of 14 U/mg
Km of peptide phosphorylation [13]: Calculated Km values are 6micromolar for Nictide; also recorded: Km of 10 µM
Vmax of peptide phosphorylation [13]: Vmax of 26 U/mg
fold decrease of Km against LRRKtide [13]: 20-fold lower than LRRKtide
fold increase of Vmax against LRRKtide [13]: 1.7-fold higher than LRRKtide
fold increase of Km against wild type LRRKtide [14]: +5Arg (4-fold)
Km against wild type LRRKtide [15]: increased Km similarly to the Ala mutation
fold decrease of Vmax against wild type LRRKtide [15]: +2 Arg (4 to 28-fold)
fold decrease of Vmax against wild type LRRKtide [16]: +2 Arg (4 to 28-fold)
fold increase of Km against wild type LRRKtide [16]: +2Arg (4.5-fold)
Km against wild type LRRKtide [17]: increased Km similarly to the Ala mutation
fold decrease of Vmax against wild type LRRKtide [17]: +2 Arg (4 to 28-fold)
fold decrease of Vmax against wild type LRRKtide [18]: -2 Tyr (2 to 10-fold)
fold increase of Km against wild type LRRKtide [18]: -2Tyr (2.4-fold)
Km against Nictide [19]: without affecting Km
fold decrease of Vmax against Nictide [19]: only decreased Vmax of LRRK2 phosphorylation under 2-fold
fold increase of Km against Nictide [20]: increasing the Km value 3-fold
fold increase of Vmax against Nictide [20]: enhanced Vmax of LRRK2 phosphorylation ~2-fold
phosphorylation of GST fusion proteins (32P autoradiography) [21]: phosphorylated to a significantly greater extent by LRRK2 than the other GST-fusion proteins
Km against wild type LRRKtide [22]: slightly decreased Km
fold decrease of Vmax against wild type LRRKtide [22]: -2 Tyr (2 to 10-fold)
fold increase of Km against wild type LRRKtide [23]: -5Arg (2.5 fold)
Km against wild type LRRKtide [24]: increased Km similarly to the Ala mutation
fold decrease of Km against wild type LRRKtide [25]: decreasing Km 2.3-fold
